These results are taken from paper PMC6639382, “Structural mechanism of synergistic activation of Aurora kinase B/C by phosphorylated INCENP” (Nature Communications, 2019).

In one experiment the target is T1, Aurora kinase C (AURKC) (Homo sapiens, UniProt Q9UQB9).
T1 construct: residues 36–305 of AURKC isoform 1; with INCENP (residues 835–903, phosphorylated on Ser893 and Ser894)
In words: co-crystal structure ([…] Å). The format is binding.

The next experiment concerns the target T2, Aurora kinase B (AURKB) (Homo sapiens, UniProt Q96GD4).
T2 construct: kinase domain co-expressed with INCENP residues 835–903; with INCENP (residues 835–903)
Kind of experiment: isothermal titration calorimetry; BLI kinetics (slow off-rate). In kind it is binding. In general terms: Isothermal titration calorimetry measures the heat released or taken up as one component is titrated into another.

The target in the next experiment is T3, Aurora kinase A (AURKA) (Homo sapiens, UniProt O14965).
T3 construct: residues 122–403
T3 sequence (O14965 122-403): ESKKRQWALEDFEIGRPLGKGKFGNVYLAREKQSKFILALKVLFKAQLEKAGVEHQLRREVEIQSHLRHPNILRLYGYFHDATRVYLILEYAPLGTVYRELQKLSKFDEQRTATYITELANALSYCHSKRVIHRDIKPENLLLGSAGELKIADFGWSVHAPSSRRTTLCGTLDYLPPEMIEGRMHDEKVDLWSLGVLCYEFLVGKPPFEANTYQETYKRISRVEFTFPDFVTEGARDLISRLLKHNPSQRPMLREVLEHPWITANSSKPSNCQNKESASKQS
Kind of experiment: crystal structure ([…] Å) and isothermal titration calorimetry. In kind it is binding.

Experiment [1] addresses T4, Aurora kinase C kinase domain (truncation not stated for this experiment), phosphorylated (human).
T4 sequence (Q9UQB9 whole entry, looked up): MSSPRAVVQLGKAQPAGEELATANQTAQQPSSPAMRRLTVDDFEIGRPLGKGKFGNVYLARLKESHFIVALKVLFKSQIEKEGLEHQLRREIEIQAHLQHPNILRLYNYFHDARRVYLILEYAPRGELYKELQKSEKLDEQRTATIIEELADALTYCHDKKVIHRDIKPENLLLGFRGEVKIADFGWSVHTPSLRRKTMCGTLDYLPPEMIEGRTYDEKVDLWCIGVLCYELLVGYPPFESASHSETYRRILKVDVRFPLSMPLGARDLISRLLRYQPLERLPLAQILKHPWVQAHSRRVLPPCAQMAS

Experiment [2] shares this target. Kind of experiment: native MS; native nano-ESI ion mobility-mass spectrometry of the co-purified complexes, 250 mM ammonium acetate, ca. 10 µM, gentle ionisation conditions.
In experiment [3] the target is T5, Aurora kinase C kinase domain (truncation not stated for this experiment), phosphorylated.
T5 chain: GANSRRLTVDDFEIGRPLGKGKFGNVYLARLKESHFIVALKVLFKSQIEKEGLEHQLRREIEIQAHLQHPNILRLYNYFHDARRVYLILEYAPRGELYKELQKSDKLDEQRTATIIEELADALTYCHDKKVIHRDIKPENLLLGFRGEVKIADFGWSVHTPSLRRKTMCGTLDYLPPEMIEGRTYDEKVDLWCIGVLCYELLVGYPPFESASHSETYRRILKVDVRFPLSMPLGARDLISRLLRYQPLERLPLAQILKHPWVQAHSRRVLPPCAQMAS
Kind of experiment: native mass spectrometry (native ESI-MS). The following applies: chain shown with the change; concentration of ca. 10 µM; same gentle ionisation conditions; parent: 0.

T1 sequence (Q9NQS7 835-903 partner, one chain of several): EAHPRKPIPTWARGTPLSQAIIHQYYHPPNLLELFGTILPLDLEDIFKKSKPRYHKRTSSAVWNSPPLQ
T2 sequence (Q96GD4 77-327 limits assumed): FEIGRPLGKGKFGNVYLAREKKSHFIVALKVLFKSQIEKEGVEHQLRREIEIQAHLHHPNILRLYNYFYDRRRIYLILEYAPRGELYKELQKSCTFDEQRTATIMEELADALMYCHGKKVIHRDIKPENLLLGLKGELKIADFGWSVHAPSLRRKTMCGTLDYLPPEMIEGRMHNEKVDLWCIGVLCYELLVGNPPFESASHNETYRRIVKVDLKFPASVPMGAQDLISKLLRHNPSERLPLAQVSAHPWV
T2 sequence (Q9NQS7 835-903 partner): as the sequence (Q9NQS7 835-903 partner, one chain of several) above

In the case of `COc1ccc(NC(=O)Nc2ccc3c(c2)C(=O)N([C@@H](C)CO)C[C@H](C)[C@H](CN(C)Cc2ccc4c(c2)OCO4)O3)cc1` [BRD-7880], the “co-crystal structure (1.75 Å)” value on Aurora kinase C (AURKC) is recorded as “The co-crystal structure with AURKC:INCENP reveals a completely ordered BRD-7880 molecule (Fig. 5a) which binds in the ATP-binding site”. Besides, the Kd was 16 nM on Aurora kinase B (AURKB) and 341 nM at Aurora kinase A (AURKA).
Regarding “INCENP IN-box (residues 835–903) S893A (from UniProt Q9NQS7-1 835-903) (domain or fragment)”, in experiment [1], the Kcat of the AURKC:INCENP complex on a peptide substrate is 46300 and the Km(peptide) of the AURKC:INCENP complex worked out at 83 µM.
For “INCENP IN-box (residues 835–903) S894A (from UniProt Q9NQS7-1 835-903) (domain or fragment)”, in that order: 38800 s⁻¹ and 83 µM.
For “INCENP IN-box (residues 835–903) W897A (from UniProt Q9NQS7-1 835-903) (domain or fragment)”, in that order: 41800 and 25.1 µM.
Consider “INCENP IN-box (residues 835–903), phosphorylated on the TSS motif (from UniProt Q9NQS7-1 835-903) (domain or fragment)”, for which, in experiment [2], the % complex formed amounted to 100%. Further, in experiment [1], the Kcat of the AURKC:INCENP complex on a peptide substrate worked out at 48800 and the Km(peptide) of the AURKC:INCENP complex worked out at 18.7 µM.

B1: INCENP IN-box (residues 835–903), phosphorylated on the TSS motif, Q9NQS7-1 S893A; S894A; W897A (protein)
chain: MEAHPRKPIPTWARGTPLSQAIIHQYYHPPNLLELFGTILPLDLEDIFKKSKPRYHKRTAAAVANSPPLQ
Regarding B1, the other: % unbound AURKC (% unbound AURKC) in experiment [3] was found to be 40.

By Kd is commonly meant a measure of binding affinity in units of concentration. A lower Kd goes with a tighter complex.
